Data from the Human Domainome abundance scans (Beltran et al. 2025).

B1: POU domain, class 4, transcription factor 2, residues 256 to 327; numbered along this chain, Q12837 (parent)
chain: RDLEAFAERFKQRRIKLGVTQADVGSALANLKIPGVGSLSQSTICRFESLTLSHNNMIALKPILQAWLEEAE

Variants of: B1
Assay: abundance fitness (aPCA) (normalised: wild type 0, dead -1); higher = more abundant; growth selection in yeast, the domain comes from the species named
Conditions: Homo sapiens

Abundance fitness: each site, then its substitutions
A27: H -0.172 | Q 0.068 | W -0.174 | P -0.941 | S -0.114 | T -0.434 | C -0.215 | M -0.234 | E -0.029 | F -0.114 | V -0.265 | L -0.302 | G -0.39 | N -0.323 | D -0.123 | R -0.178
K16: D -0.392 | T -0.015 | H 0.028 | P -1.1 | G -0.026 | F -0.066 | S -0.018 | Y -0.073 | N -0.55 | E 0.036 | M 0.11 | W -0.403 | Q 0.004 | I -0.016 | V -0.146 | A 0.001 | C -0.137
L31: C -0.102 | W 0.038 | G -0.572 | R -0.081 | E -0.112 | M 0.032 | P -0.382 | T -0.149 | Q 0.058 | F -0.018 | I 0.057 | K 0.002 | H -0.379 | A -0.426 | D -0.509 | Y 0.041
A22: Q -0.052 | K -0.078 | H -0.03 | D -0.262 | T -0.347 | R -0.138 | N -0.219 | G -0.038 | E -0.066 | F -0.031 | I -0.393 | V -0.339 | P -0.463 | W -0.302 | L -0.222 | S -0.082
G18: W -0.778 | P -1.14 | F -0.892 | E -0.322 | N -0.82 | Q -0.446 | M -0.76 | L -0.598 | A -0.593 | H -0.292 | I -0.883 | K -0.47 | S -0.652 | R -0.372
L17: T -0.272 | A -0.394 | S -0.565 | W -0.589 | C -0.704 | D -0.681 | P -0.974 | H -1.06 | Q -0.513 | Y -0.778 | G -0.884 | V -0.592 | R -0.733 | N -0.458 | K -0.286
V19: Q -0.027 | F -0.103 | P -0.987 | K 0.258 | S -0.092 | D -0.614 | M 0.055 | N -0.093 | L 0.004 | I -0.189 | H -0.12 | R 0.03 | T -0.307 | G -0.927 | A 0.018
T20: W -0.731 | Y -1.05 | M -0.344 | A -0.195 | N -0.559 | C -0.338 | I -0.916 | G -0.419 | H -0.736 | P -0.473 | R -0.464 | E -0.325 | L -0.607 | Q -0.555 | S -0.067 | V -0.964 | D -0.254 | K -0.159
R13: W -0.338 | T -0.165 | S -0.014 | Y -0.761 | V 0.067
I15: F -0.36 | Q -0.066 | N -0.521 | H -0.451 | C -0.405 | P -0.569 | R -0.298 | K 0.015 | W -0.461 | L -0.101 | E -0.226 | Y -0.444 | G -0.515 | S -0.262 | T 0.026 | M 0.113 | A -0.237
L28: R -0.643 | S -0.636 | D -0.596 | A -0.654 | I 0.072 | Y -0.747 | V -0.143 | W -0.597 | H -0.786 | F -0.215 | T -0.528 | E -0.657 | P -0.935 | M 0.008
R14: I -0.601 | A -0.906 | T -0.698 | G -1.07
